# Where no end group is shown, it is not given here.
# T1: Zap70 D461N-tagged (Myc- or hemagglutinin-tagged, kinase-inactive Zap70) (human, UniProt P43403 1-619, D461N)
# T1 sequence (looked up): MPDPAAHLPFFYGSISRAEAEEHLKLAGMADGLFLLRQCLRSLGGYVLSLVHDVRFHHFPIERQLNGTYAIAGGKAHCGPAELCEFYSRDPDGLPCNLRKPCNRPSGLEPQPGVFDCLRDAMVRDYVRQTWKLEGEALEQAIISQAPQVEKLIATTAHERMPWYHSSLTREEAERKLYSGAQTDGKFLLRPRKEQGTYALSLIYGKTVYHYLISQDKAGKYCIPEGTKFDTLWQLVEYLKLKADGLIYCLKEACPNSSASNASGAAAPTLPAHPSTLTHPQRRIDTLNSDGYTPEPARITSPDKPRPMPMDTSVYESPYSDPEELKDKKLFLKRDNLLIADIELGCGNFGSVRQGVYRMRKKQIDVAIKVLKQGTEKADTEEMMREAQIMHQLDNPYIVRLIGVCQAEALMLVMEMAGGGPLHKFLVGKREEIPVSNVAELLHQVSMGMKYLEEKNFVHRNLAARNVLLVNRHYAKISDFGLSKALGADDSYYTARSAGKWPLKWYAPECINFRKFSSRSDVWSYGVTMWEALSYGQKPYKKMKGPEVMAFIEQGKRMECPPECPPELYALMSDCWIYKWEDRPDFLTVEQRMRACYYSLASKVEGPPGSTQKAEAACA
# Molecular target: T1, Zap70 D461N-tagged (Myc- or …)
# Test: ELISA
binder,measurement,value
"GGAGQDGVRQSRASDKQTLLPNDQLYQPLKDREDDQYSHLQGNQLRRN (domain or fragment, also: ITAM phosphorylated by Lck, sites not given here, GST fusion)",binding result,binds
